Source: PMC3485190, “Crystal Structures of Lysine-Preferred Racemases, the Non-Antibiotic Selectable Markers for Transgenic Plants” (PLoS ONE, 2012)

How the values were obtained:
NCCCC[C@H](N)C(=O)O = tested on: T1, NCCCC[C@H](N)C(=O)O; assay: steady-state racemization, chiral HPLC; type: biochemical, Pseudomonas putida; details: 100 mM CHES-NaOH pH 9.0, 30 µM PLP, 50°C
T1 construct: homodimer; first 25 residues (signal peptide) removed by auto-cleavage
Excerpt: steady-state racemization, chiral HPLC on Bar (broad-specificity amino acid racemase)

[1] = target: T2, Bar (broad-specificity amino acid racemase) (Pseudomonas putida, UniProt I6LNY0); assay: X-ray crystallography, […] Å; type: binding; details: covalent, internal aldimine with Lys75; pH 8.5
T2 construct: homodimer; first 25 residues (signal peptide) removed by auto-cleavage
T2 sequence (I6LNY0 26-409): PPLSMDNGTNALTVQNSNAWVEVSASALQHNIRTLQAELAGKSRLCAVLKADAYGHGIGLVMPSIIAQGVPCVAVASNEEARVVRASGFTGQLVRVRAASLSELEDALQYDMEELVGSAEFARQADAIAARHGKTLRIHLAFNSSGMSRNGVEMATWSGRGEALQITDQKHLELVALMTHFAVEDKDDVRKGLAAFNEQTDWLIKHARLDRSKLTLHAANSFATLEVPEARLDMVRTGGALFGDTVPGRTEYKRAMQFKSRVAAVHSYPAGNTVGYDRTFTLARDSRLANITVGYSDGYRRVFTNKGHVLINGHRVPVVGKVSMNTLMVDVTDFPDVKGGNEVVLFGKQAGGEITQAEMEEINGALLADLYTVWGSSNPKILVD

[2] = target: T2, Bar (broad-specificity amino acid racemase); assay: X-ray crystallography, […] Å; type: binding; details: co-crystallized with 4 mM L-lysine, pH 9.0; covalent external aldimine with PLP
[3] = substrate: N=C(N)NCCC[C@H](N)C(=O)O; assay: steady-state racemization, chiral HPLC; type: biochemical, Proteus mirabilis; details: 100 mM CHES-NaOH pH 9.0, 30 µM PLP, 50°C
Excerpt: (§1) steady-state racemization, chiral HPLC on Lyr (lysine racemase)

[4] = substrate: NCCCC[C@H](N)C(=O)O; assay: steady-state racemization, chiral HPLC; type: biochemical, Proteus mirabilis; details: 100 mM CHES-NaOH pH 9.0, 30 µM PLP, 50°C
Excerpt: as §1

[5] = target: the molecule itself; assay: crystal structure; Lyr (2.5 mg/ml), sitting-drop vapor diffusion at 20°C, 0.1 M sodium acetate pH 4.6, 0.05 M lithium chloride, 29% PEG 8000; space group C222(1), one molecule per asymmetric unit, dimer by a crystallographic two-fold axis; 1.74 Å
[6] = target: the molecule itself; assay: crystal structure; apo Bar (4.7 mg/ml in 10% glycerol), sitting-drop vapor diffusion at 20°C, 0.1 M Tris-HCl pH 8.5, 2.0 M ammonium sulfate; space group C2, two molecules per asymmetric unit; 2.45 Å

Molecule: Bar (broad-specificity amino acid racemase) (Pseudomonas putida; A393Y)
- Km (NCCCC[C@H](N)C(=O)O): 33.9 ± 3.5 mM
- kcat (NCCCC[C@H](N)C(=O)O): 24.3 ± 2.18 s⁻¹
- kcat/Km (NCCCC[C@H](N)C(=O)O): 715 M⁻¹ s⁻¹

Molecule: Cc1ncc(COP(=O)(O)O)c(C=O)c1O [PLP]
- X-ray crystallography, 2.45 Å [1]: fit with an aldimine bond between the Lys75 Nζ and the PLP C4A

Molecule: NCCCC[C@H](N)C(=O)O [L-Lys]
- X-ray crystallography, 3.10 Å [2]: The complex-Bar structure was established (Figure 7A, B) by co-crystallizing Bar with L-lysine.

B1: Lysine racemase (Lyr) from Proteus mirabilis BCRC10725 (enzyme)
chain: CQQPVNYNPPATQVAQVQPAIVNNSWIEISRSALDFNVKKVQSLLGKQSSLCAVLKGDAYGHDLSLVAPIMIENNVKCIGVTNNQELKEVRDLGFKGRLMRVRNATEQEMAQATNYNVEELIGDLDMAKRLDAIAKQQNKVIPIHLALNSGGMSRNGLEVDNKSGLEKAKQISQLANLKVVGIMSHYPEEDANKVREDLARFKQQSQQVLEVMGLERNNVTLHMANTFATITVPESWLDMVRVGGIFYGDTIASTDYKRVMTFKSNIASINYYPKGNTVGYDRTYTLKRDSVLANIPVGYADGYRRVFSNAGHALIAGQRVPVLGKTSMNTVIVDITSLNNIKPGDEVVFFGKQGNSEITAEEIEDISGALFTEMSILWGATNQRVLVD
notes: also called wild-type Lyr
- Km [3]: 14.9 ± 1.0 mM
- kcat [3]: 10.8 ± 0.583 s⁻¹
- kcat/Km [3]: 727 M⁻¹ s⁻¹
- Km [4]: 21.8 ± 0.5 mM
- kcat [4]: 55.4 ± 1.13 s⁻¹
- kcat/Km [4]: 2540 M⁻¹ s⁻¹
- stoichiometry N [5]: 2

B2: Broad-specificity amino acid racemase (Bar) from Pseudomonas putida DSM84 (enzyme, UniProt I6LNY0 26-409, looked up)
chain: T2 sequence (I6LNY0 26-409)
modifications: PLP bound to Lys75 by an internal aldimine bond (apo crystal); in the crystal with L-lysine PLP forms the external aldimine with the substrate
notes: Broad-specificity amino acid racemase (Bar, E.C. 5.1.1.10), Pseudomonas putida DSM84, gene bar amplified from chromosomal DNA into pET21a; the first 25 residues contained the signal peptide and were removed by auto-cleavage; Head-to-tail homodimer in the crystal (two molecules in the asymmetric unit); also called wild-type Bar; complex-Bar (with L-lysine)
- stoichiometry N [6]: 2
